Assay results taken from patent US9617344B2, “Fusion protein comprising targeting moiety, cleavage site, and cell membrane penetrating domain, and use thereof” (Samsung Electronics Co., Ltd., priority 2014, dated 2017).

Experiments:
[1] = tested on: MDA-MB-231 xenograft; experiment: Anticancer effect in MDA-MB-231 xenograft mouse model; assay type: in vivo, BALB/c nude mouse; details: 75 uM/0.1 ml/mouse administered to the tumor tissue once a day
Description: To examine the anticancer effect of the conjugate of Example 2, a xenograft mouse model was employed. The xenograft mouse model was prepared by an […] injection of intractable breast cancer cell line MDA-MB-231 into breast tissue of 6-week old BALB/c nude mouse to form a tumor tissue.
In particular, 8×10^6 cells (in 0.08 ml of PBS with matrigel) of MDA-MB-231 (ATCC) were […] of 6-week old BALB/c nude mouse to prepare a xenograft mouse model (Orthotopic mouse model). When the tumor size reaches […], the xenograft mouse model was used in the following experiment.
The obtained results are shown in FIG. 7, and the degree (%) of tumor size reduction (tumor growth inhibition; TGI) compared to the buffer administered group calculated from the results of FIG. 7 was shown in Table 4: […]

[2] = target: T1, EGFR present in A431 (Homo sapiens, UniProt P00533); experiment: Tumor cell targeting test (confocal imaging of protein binding to A431 cells); assay type: cell-based; details: A431 cells treated with 7.5 or 15 ug/ml for one hour; fluorescent imaging, FIG. 2; positive control Erbitux
T1 construct: EGFR present in A431; host or cells: A431

[3] = tested on: A431 cells; experiment: Cell cycle arrest test (gene transfection, DNA content by FACS); assay type: cell-based; details: gene transfected into A431 cells with Lipofectamine 2000; compared to p16WT; FIGS. 3 and 4
Description: A vector containing a gene encoding ‘p16M7’ or ‘p16WT’ (wild-type) was transfected into A431 cells (ATCC) by liposomal transfection method using Lipofectamine 2000 (Invitrogen) (see Example 1). The transfection was performed according to a manual provided by Invitrogen. 24 hours after the transfection, the medium was exchanged with a fresh medium. At 24 hours 48 hours thereafter, DNA contents were measured by FACS.
After transfecting the p16M7 gene or p16WT gene into cells using Lipo2000, the presence of cell cycle arrest was observed. […] For labeling, pEGFP-C2 vector (Clontech) for p16WT and p16M7 (indicated as “p16 Mut” in FIG. 3). […] FIG. 4 contains graphs quantitatively showing the degree of cell cycle arrest of FIG. 3, wherein “% frequency” of Y axis refers to a value of cell population obtained through Flow jo software, each symbol in X axis refers to the follows: C2-6: using EGFP only (6 ul), C2-10: using EGFP only (10 ul), Mut: using p16M7 (6 ul or 10 ul) and WT: using p16WT (6 ul or 10 ul).

B1: D(EGFR)-M9R-MTS-NLS-p16M7: Conjugate: anti-EGFR DARPin (SEQ ID NO: 7), MMP9 cleavage site M9R, MTS-NLS fusion peptide, p16 variant p16M7; SEQ ID NO: 35 (protein)
chain: DLGKKLLEAARAGQDDEVRILMANGADVNADDTWGWTPLHLAAYQGHLEIVEVLLKNGADVNAYDYIGWTPLHLAADGHLEIVEVLLKNGADVNASDYIGDTPLHLAAHNGHLEIVEVLLKHGADVNAQDKFGKTAFDISIDNGNEDLAEILQSGKIPRTLTAAAVALLPAVLLALLAPKKKRKMEPAAGSSMEPSADKLATAAARGRVEEVRALLEAGADPNAPNSYGRRPIQVMMMGSARVAELLLKHGAEPNSADPATSTRPVHDAAREGFLDTLVVLHRAGARLDARDAWGRTPVDLAEELGHRDVARYLRAAAGGTRGSNHARIDAAEGPSDIPD
modifications: Synthetic Conjugate (anti-EGFR DARPin-M9R- MTS-NLS-p16M7)
- increased anticancer effect compared to the control [Darpin(EGFR)] ([1]; versus D(EGFR) group): about 21.4%

B2: Darpin: Negative control; Mock Darpin having no binding target; SEQ ID NO: 43 (protein)
chain: GSDLGKKLLEAARAGQDDEVRILMANGADVNAEDKVGLTPLHLAAMNDHLEIVEVLLKNGADVNAIDAIGETPLHLVAMYGHLEIVEVLLKHGADVNAQDKFGKTAFDISIDNGNEDLAEILQKLN
modifications: Synthetic Non-EGFR targeting DARPin
- binding ability to EGFR present in A431 [2]: little binding ability

B3: p16M7: Human p16 protein variant with seven substitutions for improved solubility (SEQ ID NO: 2) (protein)
chain: MEPAAGSSMEPSADKLATAAARGRVEEVRALLEAGADPNAPNSYGRRPIQVMMMGSARVAELLLKHGAEPNSADPATSTRPVHDAAREGFLDTLVVLHRAGARLDARDAWGRTPVDLAEELGHRDVARYLRAAAGGTRGSNHARIDAAEGPSDIPD
modifications: Synthetic Human p16 Variant
- cell cycle arrest effect [3]: maintaining the cell cycle arrest effect

B4: D(EGFR)-M9R-p16M7: Comparison conjugate lacking MTS-NLS: SEQ ID NO: 7-SEQ ID NO: 26-SEQ ID NO: 2 (protein)
chain: DLGKKLLEAARAGQDDEVRILMANGADVNADDTWGWTPLHLAAYQGHLEIVEVLLKNGADVNAYDYIGWTPLHLAADGHLEIVEVLLKNGADVNASDYIGDTPLHLAAHNGHLEIVEVLLKHGADVNAQDKFGKTAFDISIDNGNEDLAEILQSGKIPRTLTAMEPAAGSSMEPSADKLATAAARGRVEEVRALLEAGADPNAPNSYGRRPIQVMMMGSARVAELLLKHGAEPNSADPATSTRPVHDAAREGFLDTLVVLHRAGARLDARDAWGRTPVDLAEELGHRDVARYLRAAAGGTRGSNHARIDAAEGPSDIPD
modifications: Synthetic anti-EGFR DARPin-01; Synthetic MMP9 cleavage region; Synthetic Human p16 Variant
- degree (%) of tumor size reduction (tumor growth inhibition; TGI) compared to the buffer administered group ([1]; n=10, calculated from FIG. 7): 50.0%
